± gives the half width of the 95% confidence interval.
Key:
[1] = folding stability dG unfold from chymotrypsin proteolysis; higher = more stable
In short: (§1)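 Sequencing followed digestion of designed mini-proteins with trypsin and chymotrypsin, each at 11 concentrations in threefold dilutions together with a no-protease condition. The mini-proteins were under 80 residues, had no cysteine, sat in a PA-tagged cDNA display construct, and were kept only if AlphaFold2 dimer inter-PAE was above 15. From the counts, Bayesian fitting gave K50, and unfolding free energy was derived against a sequence-predicted unfolded-state K50 and a shared folded-state K50, per protease or combined.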

[2] = folding stability dG unfold (combined trypsin and chymotrypsin); higher = more stable
In short: as §1

[3] = folding stability dG unfold from trypsin proteolysis; higher = more stable
In short: as §1

Sequence | folding stability dG unfold [1] | folding stability dG unfold [2] | folding stability dG unfold [3]
NPIERLKEAIKNAPPGETADIPFPDGMYININIEPEREKEDGKPRRRRKIKIEIYPPDGKPLGSITLEVPYS [r1_386_TrROS] | 1.23 ± 0.11 kcal/mol | 1.36 ± 0.15 kcal/mol | 1.49 ± 0.084 kcal/mol
SKKKKIIKIDIKPEDIEKGIKAVREAIKKAKEAEPDTEVIIDFHFESDYPEKVKEIEDLFKKENIPLKIGSA [r9_1202_TrMRF] | 0.883 ± 0.048 kcal/mol | 1.31 ± 0.18 kcal/mol | 1.39 ± 0.11 kcal/mol
SAGGSAKVKIIVTYNDGKKEEIIFDIPENYEISEVEKIAKKIAKNIAKKKNLPNVNIKVEKIEPLESAGGSA [r15_463_TrMRF] | 3.39 ± 0.06 kcal/mol | 3.09 ± 0.074 kcal/mol | 2.41 ± 0.047 kcal/mol
SAGGSAGGDYVKIEIWIPPGMPDAEELVDKMSNYGFEIKKIERDPKNNYVRVTIVFQIPPGAIKSAGGSAGG [r6_604_TrROS] | 2.43 ± 0.067 kcal/mol | 2.26 ± 0.27 kcal/mol | 1.67 ± 0.084 kcal/mol
SAGGSAGGKKLYIVKIKIKNENGEEIEITLVFETEEQLKEALESLPIKNVKIEDVEIIPLEELKSAGGSAGG [r6_296_TrROS_Hall] | 3.39 ± 0.098 kcal/mol | 3 ± 0.063 kcal/mol | 1.88 ± 0.051 kcal/mol
SAGMVKTEPDPNSDIVRRTFTVQVPVRIPPGEWRELTIEVPFDEVYGPGGVPVDPVSEEEIEAAIKALLSAG [r5_239_JUSTAS] | 1.15 ± 0.087 kcal/mol | 1.07 ± 0.096 kcal/mol | 0.966 ± 0.037 kcal/mol
SAGGSAMERVTITLPDGRELTIERFPEEPNRFVLTFPDGRRLEFEFESPEEGLRAALELVLAGKEGSAGGSA [r15_38_TrMRF] | 4.13 ± 0.042 kcal/mol | 3.91 ± 0.06 kcal/mol | 3.34 ± 0.075 kcal/mol
SAGGEEGKPKWVEMWIFIPKEILEDIKQGEPLTVKQIAQKIGFPPNIEVKIIEREGDYIYVRITIPVSAGGS [r16_679_TrROS] | 4.66 ± 0.11 kcal/mol | 4.66 ± 0.27 kcal/mol | 4.53 ± 0.25 kcal/mol
SAGGSAGGSAGKNMVEIEMMFVLPDGWFIKTSLRINPDKPGRIHEVEIEIRKIPPNDEQISAGGSAGGSAGG [r17_299_TrROS] | 4.31 ± 0.17 kcal/mol | 4.06 ± 0.19 kcal/mol | 3.51 ± 0.24 kcal/mol
SAGGSAGGSAGGKFKPGQTIKIKLKVKVKVNGKEYEFEKELEIKIKPKVTMSEEELKKKSAGGSAGGSAGGS [r10_175_TrROS_Hall] | 2.12 ± 0.09 kcal/mol | 1.39 ± 0.26 kcal/mol | 0.169 ± 0.16 kcal/mol
SAGMSVTLEFTDPDKSAEELKEEIMKKVGIPENYPVKVTETPSPADGYTLTITVDDPKVAEAIKKALSSAGG [r19_215_JUSTAS] | 1.742 ± 0.016 kcal/mol | 1.57 ± 0.066 kcal/mol | 1.26 ± 0.037 kcal/mol
SAGGSKKTIELVIKDKKTNKWLKITIEYDEETGEVTVTIYDKNGEVVKEIKMSKDELKKLLEKLGFSAGGSA [r2_115_TrROS_Hall] | 4.37 ± 0.16 kcal/mol | 4.28 ± 0.36 kcal/mol | 3.02 ± 0.22 kcal/mol
SAGGSAGGSAGGSSIEELRRSPEVEVEVSTEKLPNGKTVTTVTLTPPDGVPTTIVLPEGSAGGSAGGSAGGS [r4_70_JUSTAS] | 1.17 ± 0.041 kcal/mol | 0.978 ± 0.14 kcal/mol | 0.266 ± 0.075 kcal/mol
SAGGSAGGSAGGPEIITFRNPGNGVTLMVWRTPNNITVSIYNPDGPQKEIPIPPGEPIFSAGGSAGGSAGGS [r10_976_TrROS] | 0.971 ± 0.36 kcal/mol | 0.875 ± 0.19 kcal/mol | 0.833 ± 0.098 kcal/mol
SAGGSAGGSTLEEVRKIAEEAVKKGYPYVVISAPGGLKKVFKVEEDDIVEIPDSEGYTVELLSSAGGSAGGS [r20_44_TrMRF] | 0.85 ± 0.14 kcal/mol | 0.52 ± 0.12 kcal/mol | 0.202 ± 0.07 kcal/mol
SAGGMTRKLTFLGDIDKPVGLDGDIEIRPNPETGGFTIRVPPGVRIEAEVERLTDPPLALVTVTFLESAGGS [r16_122_TrMRF] | 1.03 ± 0.074 kcal/mol | 0.715 ± 0.054 kcal/mol | -0.118 ± 0.082 kcal/mol
SAGGSAPSSELLEEEFETEDKSNNTTIKIYKVPGTGDYLIETTTPSGKKTKLTLGPLSESEAKGLISAGGSA [r15_295_JUSTAS] | 0.32 ± 0.097 kcal/mol | 0.32 ± 0.059 kcal/mol | 0.0974 ± 0.023 kcal/mol
KKVKIEIEVIHPGPDGWVIRAKVKYPGNNKKKEKPFFFPNPKEFVKEIANELLPKNQLDDVDIEMYPLEEFS [r1_399_TrROS] | 0.686 ± 0.14 kcal/mol | 0.875 ± 0.15 kcal/mol | 0.973 ± 0.058 kcal/mol
SAGMKPGETITIENLPEGAIIYNKNGEKVEKVKEVKVTVEDGKITIEVKLEDGSTKTFTVPLEDLKIVPSAG [r5_850_TrROS_Hall] | 3.05 ± 0.058 kcal/mol | 2.31 ± 0.14 kcal/mol | 1.61 ± 0.12 kcal/mol
SAFRDLAKEIARDAGYPVELVEIEFTNDTWTFMIQMKNDGEPYYFRIEIEWPNPNPGDWRIEIDDVQPPSAG [r14_387_TrROS] | 3.09 ± 0.094 kcal/mol | 2.78 ± 0.28 kcal/mol | 1.94 ± 0.14 kcal/mol
SAGGSAGGSDTVNVKVTVSFPPGTETKEITVNVPVVPGNPDVVKAKVDELAAAFPDAVVTAEKSAGGSAGGS [r12_795_TrMRF] | 1.99 ± 0.095 kcal/mol | 1.6 ± 0.12 kcal/mol | 0.294 ± 0.078 kcal/mol

Sequence | folding stability dG unfold [1] | folding stability dG unfold [2] | folding stability dG unfold [3]
SAGGMKIKAEDIVSVEVTYNEETNELTVKVTVRINGKEVTLTFPEGMSEEELKRLLEELIKKGELEIESAGG [r13_225_TrROS_Hall] | 2.96 ± 0.1 kcal/mol | 2.78 ± 0.11 kcal/mol | 2.19 ± 0.12 kcal/mol
SAGGSAGGSAEITFNFPNPNGRPYPISIEIEKPKRNPDGKYRYDYKIKVSPGMPKEAAKDLFSAGGSAGGSA [r18_272_TrROS] | -0.314 ± 0.33 kcal/mol | -0.351 ± 0.2 kcal/mol | -0.849 ± 0.39 kcal/mol
SAGGSAGGSAGGKTYTAEELRKKLPPGAVIRLKNGKKYEIKEGDKIKKGDKIEIVPKKDLSAGGSAGGSAGG [r7_507_TrROS_Hall] | 0.369 ± 0.14 kcal/mol | 0.18 ± 0.13 kcal/mol | -0.344 ± 0.32 kcal/mol
SAGGSAGGSGSMKEIEIEIPKDDPQLIEKIKEELKQKNSKKVEVKEIKKTPEGKYKVKIIIEESAGGSAGGS [r12_91_JUSTAS] | 0.901 ± 0.081 kcal/mol | 0.879 ± 0.17 kcal/mol | 1.03 ± 0.1 kcal/mol
QEIPIKELIKEALENGRPIVFPNGMEITDINPDGSITVKMPYYNPDDPGQPVQPVEMQIKIDEDGRIEVEFS [r1_284_TrROS] | 1.76 ± 0.054 kcal/mol | 1.45 ± 0.12 kcal/mol | 0.96 ± 0.12 kcal/mol
SAGGSAGGSAGGEVKILRVEEFEDGVVRVFVEGDDPVLVIELGPDGVILSIEEVDSSELSAGGSAGGSAGGS [r10_211_TrMRF] | 0.562 ± 0.034 kcal/mol | 0.781 ± 0.085 kcal/mol | 1.04 ± 0.044 kcal/mol
MLLVKAEFTIKNSDGTEETFTVLVEVPESEEEAEEAVEKEIEKIAEEKGLSTENITEIKVEIYPPSEPVKPS [r1_159_JUSTAS] | 2.7 ± 0.077 kcal/mol | 2.48 ± 0.081 kcal/mol | 2.1 ± 0.098 kcal/mol
KPKLTIEYDEETGKFTITLPDGRKIEIELKKDGTVVRIRVKENGKEREIELTLDELKALLDNKDVTIEIIPS [r1_18_TrROS_Hall] | 3.45 ± 0.2 kcal/mol | 3.81 ± 0.23 kcal/mol | 3.95 ± 0.13 kcal/mol
SAGGSAGGSAGDTLILVRNEDGRLYLIRVRAYRVPGEDGSLVFEVEIVEFPSLEEALAALSAGGSAGGSAGG [r11_967_TrROS_Hall] | 4.825 ± 0.039 kcal/mol | 4.66 ± 0.051 kcal/mol | 4.05 ± 0.065 kcal/mol
EEEVEELAKKLEEELRKKLRELFPEMSEEDIKIEEIEVEKTVTVEVNGEKKEIKVKVKIKMSEEVLERLKKS [r1_299_TrROS_Hall] | 2.09 ± 0.33 kcal/mol | 1.72 ± 0.42 kcal/mol | 1.98 ± 0.14 kcal/mol
SAGGSAGGSAGGGELKYRTLTVDLPVDDPDGRKLPRRLVITFPASNPELAEAFLKALGYSAGGSAGGSAGGS [r10_1062_TrMRF] | 1.75 ± 0.021 kcal/mol | 1.52 ± 0.034 kcal/mol | 1.11 ± 0.012 kcal/mol
SAGGSAGGPEVYPVPGLTPEQFRELVERHGGRLRVVLPGGEEVELDFTRDSRPIPGKPAVVVFGSAGGSAGG [r6_303_TrMRF] | -0.544 ± 0.12 kcal/mol | 0.12 ± 0.048 kcal/mol | 0.498 ± 0.019 kcal/mol
SAGGSAGGSTPTEFAKNLNVTEVKYDPVKKTVRVIHEFEDYLVLVEYDPSTGEVRVEVFSKDESAGGSAGGS [r12_214_TrMRF] | 2.05 ± 0.12 kcal/mol | 1.84 ± 0.24 kcal/mol | 1.4 ± 0.12 kcal/mol
SAGGSAGGSAGMVLPVTKVYRDGDTVYLYFDGLGLIAEIRIDDDKITLPSVYRVHPDEDLSAGGSAGGSAGG [r17_30_TrMRF] | 0.438 ± 0.11 kcal/mol | 0.691 ± 0.095 kcal/mol | 0.835 ± 0.038 kcal/mol
SADPDEEVTLTLTLPASASPEEVEKVRDEIREAFESLGLEVDVKVEADPETGEVPVTVTLKKEALEKLGSAG [r14_602_TrMRF] | 1.91 ± 0.06 kcal/mol | 1.73 ± 0.18 kcal/mol | 0.834 ± 0.043 kcal/mol
SAGGSMKITVTVSYSELKEKYPDLTEEELKELAEEIAKEKKKEIIEGNPDISENTEIEVKIEKPAVIESAGG [r13_634_JUSTAS] | 2.27 ± 0.052 kcal/mol | 1.84 ± 0.12 kcal/mol | 0.76 ± 0.11 kcal/mol
SAMYLIKITIYNEETGEKIAELTLEVEEEDLEELLEEIRKKLNLPPGAKIKVEIVPLEPVVLPDGKLLKSAG [r14_297_TrROS_Hall] | 2.54 ± 0.2 kcal/mol | 1.7 ± 0.27 kcal/mol | 0.724 ± 0.12 kcal/mol
SAGGKKKPPKVKIVSIEVEVFKNENGEKFVKVKIKFEKTNKIITITVPPGMTLEELAKKLNIEIEKESAGGS [r16_676_TrROS_Hall] | 3.04 ± 0.041 kcal/mol | 2.72 ± 0.088 kcal/mol | 1.67 ± 0.048 kcal/mol
SAGGMPVGVARVRTEAGDKVLEFTVEVPADVGAVEIRVKLKPDPLTGEPVVEEILEVRTYRAPPDVELSAGG [r13_568_TrMRF] | 0.837 ± 0.075 kcal/mol | 0.887 ± 0.055 kcal/mol | 0.84 ± 0.047 kcal/mol
SMKVKTYTFKIKVDGKEIEVTVEELEDGELLVTIKIKENGKEKTIVVSREELEELLKALLPPGAEIEKVESA [r9_384_TrROS_Hall] | 3.49 ± 0.055 kcal/mol | 3.33 ± 0.099 kcal/mol | 2.99 ± 0.13 kcal/mol
MTITVRFTFQTEEEAEKAAEEVKRKLAEELGLSEEVLKKIPVEVKRTETGSENGEPVYEVTVTFKLPEELLS [r1_81_JUSTAS] | 4.94 ± 0.084 kcal/mol | 4.84 ± 0.084 kcal/mol | 4.17 ± 0.14 kcal/mol
